This is an account of results in paper PMC4132731, “Crystal structure of RNase H3–substrate complex reveals parallel evolution of RNA/DNA hybrid recognition”.

The target in this data set is T1, Ta-RNase H3 D78N (Thermovibrio ammonificans, UniProt E8T217 1-270, D78N).
T1 sequence: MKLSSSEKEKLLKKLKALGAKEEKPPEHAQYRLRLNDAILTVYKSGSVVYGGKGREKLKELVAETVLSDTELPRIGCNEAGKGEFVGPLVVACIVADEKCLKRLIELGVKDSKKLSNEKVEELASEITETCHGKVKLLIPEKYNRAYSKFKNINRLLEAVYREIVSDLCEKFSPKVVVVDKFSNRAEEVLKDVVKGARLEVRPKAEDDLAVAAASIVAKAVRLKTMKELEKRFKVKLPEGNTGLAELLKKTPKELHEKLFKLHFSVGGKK
Put plainly: X-ray crystallography (2.1 A); Mg2+ (metal ion A only); sulfate; EMSA: 10% native TAE polyacrylamide gel, binding buffer not given in the material; crystals: 0.2 M ammonium sulfate, 0.1 M BisTris pH 5.5, 25% PEG 3350, 10 mM spermine tetrahydrochloride, protein:substrate 1:1.2. As to conditions: protein: recombinant; tags: N-terminal His-SUMO tag removed with SENP; extra N-terminal Ser0 before Met1 (cloning artifact); blunt. On the technique in general: Mobility shift assays separate free from complexed probe on a gel.

B1: 19-bp RNA/DNA hybrid (DNA:RNA)
RNA: GAGUGCGACACCUGAUUCC
DNA: GGAATCAGGTGTCGCACTC
With B1, the binding result is listed as “binds”.
